Data reported in patent publication US20210210159A1, “COMPUTATIONAL PROTEIN DESIGN USING TERTIARY OR QUATERNARY STRUCTURAL MOTIFS” (Trustees of Dartmouth College, priority 2018, published 2021).

How the values were obtained:
[1] = Fast Protein Liquid Chromatography / size-exclusion chromatography, oligomeric state; format: physicochemical; conditions: concentration of at least 10 μM
From the text: Based on the standards, the dimeric protein would be expected to elute at the volume indicated by a dotted line, which eliminates the possibility of design oligomerization.

[2] = Chemical denaturation by guanidinium hydrochloride (GuHCl), chromophore absorbance at 587 nm; format: physicochemical; conditions: compared with original mCherry
From the text: Degree of foldedness was monitored via chromophore absorbance at 587 nm. Because the chromophore rapidly […], this constitutes a sensitive metric of structure. Data are fit to the Hill equation, with the concentration of half denaturation noted in the legend.
Thus, by all measures, the designed protein, which differs from the original mCherry in 48 positions, preserved the starting structure and even function.

B1: design: TERM-based surface-redesigned mCherry, 48 of 64 variable surface positions changed (SEQ ID NO. 2) (protein)
chain: MVSKGEEDNMAIIKEFMTFEVEMEGTVNGHPFRIRGSGGGDPYEGTQTARLEVVEGGPLPFAWDILSPQFMYGSKAYVKHPADIPDYLKLSFPEGFTWTRTMEFEDGGTVKVTQTSTLKDGKFHYKVKLTGSNFPSDGPVMQKKTMGWEASTERMRPKDGKLEGEIDQELRLKDGGYYRARVRTTYKAKKPVQLPGAYTVRIRLEITSHNEDYTEVEQTETAKGEHSTGGMDELYK
modifications: TERM-based designed sequence
oligomeric state in solution [1]: monomeric
protection of chromophore on chemical denaturation [2]: approximately as well as the original mCherry
